To fix the notation:
B3: Purified recombinant HCV envelope glycoprotein E2 (Ala 384-Lys 715) (other)
chain: ETHVTGGSAGHTVSGFVSLLAPGAKQNVQLINTNGSWHLNSTALNCNDSLNTGWLAGLFYHHKFNSSGCPERLASCRPLTDFDQGWGPISYANGSGPDQRPYCWHYPPKPCGIVPAKSVCGPVYCFTPSPVVVGTTDRSGAPTYSWGENDTDVFVLNNTRPPLGNWFGCTWMNSTGFTKVCGAPPCVIGGAGNNTLHCPTDCFRKHPDATYSRCGSGPWITPRCLVDYPYRLWHYPCTINYTIFKIRMYVGGVEHRLEAACNWTRGERCDLEDRDRSELSPLLLTTTQWQVLPCSFTTLPALSTGLIHLHQNIVDVQYLYGVGSSIASWAIK
notes: also called HCV E2; HCV-E2

The target in assay [1] is T1, apoprotein B (apoB100), delipidized protein (human, UniProt P04114 28-4563).
T1 construct: also called apo-B delipidized protein; apoprotein apoB100
In words: flow cytometry on MOLT-4 cells, cell-bound apoB detected with goat polyclonal antibody.

In assay [2] the target is B3. Briefly: flow cytometry, recombinant E2 on mouse 3T3 cells expressing only murine CD81.
Assay [3] concerns the target T1, apoprotein B (apoB100), delipidized …. Briefly: flow cytometry on MOLT-4 cells incubated with E2, apo-B delipidized protein and E2/apoB; cell-bound E2 detected with antibody 108. (In general: A flow cytometer gives signals particle by particle.)

T1 sequence (P04114 28-4563 limits assumed): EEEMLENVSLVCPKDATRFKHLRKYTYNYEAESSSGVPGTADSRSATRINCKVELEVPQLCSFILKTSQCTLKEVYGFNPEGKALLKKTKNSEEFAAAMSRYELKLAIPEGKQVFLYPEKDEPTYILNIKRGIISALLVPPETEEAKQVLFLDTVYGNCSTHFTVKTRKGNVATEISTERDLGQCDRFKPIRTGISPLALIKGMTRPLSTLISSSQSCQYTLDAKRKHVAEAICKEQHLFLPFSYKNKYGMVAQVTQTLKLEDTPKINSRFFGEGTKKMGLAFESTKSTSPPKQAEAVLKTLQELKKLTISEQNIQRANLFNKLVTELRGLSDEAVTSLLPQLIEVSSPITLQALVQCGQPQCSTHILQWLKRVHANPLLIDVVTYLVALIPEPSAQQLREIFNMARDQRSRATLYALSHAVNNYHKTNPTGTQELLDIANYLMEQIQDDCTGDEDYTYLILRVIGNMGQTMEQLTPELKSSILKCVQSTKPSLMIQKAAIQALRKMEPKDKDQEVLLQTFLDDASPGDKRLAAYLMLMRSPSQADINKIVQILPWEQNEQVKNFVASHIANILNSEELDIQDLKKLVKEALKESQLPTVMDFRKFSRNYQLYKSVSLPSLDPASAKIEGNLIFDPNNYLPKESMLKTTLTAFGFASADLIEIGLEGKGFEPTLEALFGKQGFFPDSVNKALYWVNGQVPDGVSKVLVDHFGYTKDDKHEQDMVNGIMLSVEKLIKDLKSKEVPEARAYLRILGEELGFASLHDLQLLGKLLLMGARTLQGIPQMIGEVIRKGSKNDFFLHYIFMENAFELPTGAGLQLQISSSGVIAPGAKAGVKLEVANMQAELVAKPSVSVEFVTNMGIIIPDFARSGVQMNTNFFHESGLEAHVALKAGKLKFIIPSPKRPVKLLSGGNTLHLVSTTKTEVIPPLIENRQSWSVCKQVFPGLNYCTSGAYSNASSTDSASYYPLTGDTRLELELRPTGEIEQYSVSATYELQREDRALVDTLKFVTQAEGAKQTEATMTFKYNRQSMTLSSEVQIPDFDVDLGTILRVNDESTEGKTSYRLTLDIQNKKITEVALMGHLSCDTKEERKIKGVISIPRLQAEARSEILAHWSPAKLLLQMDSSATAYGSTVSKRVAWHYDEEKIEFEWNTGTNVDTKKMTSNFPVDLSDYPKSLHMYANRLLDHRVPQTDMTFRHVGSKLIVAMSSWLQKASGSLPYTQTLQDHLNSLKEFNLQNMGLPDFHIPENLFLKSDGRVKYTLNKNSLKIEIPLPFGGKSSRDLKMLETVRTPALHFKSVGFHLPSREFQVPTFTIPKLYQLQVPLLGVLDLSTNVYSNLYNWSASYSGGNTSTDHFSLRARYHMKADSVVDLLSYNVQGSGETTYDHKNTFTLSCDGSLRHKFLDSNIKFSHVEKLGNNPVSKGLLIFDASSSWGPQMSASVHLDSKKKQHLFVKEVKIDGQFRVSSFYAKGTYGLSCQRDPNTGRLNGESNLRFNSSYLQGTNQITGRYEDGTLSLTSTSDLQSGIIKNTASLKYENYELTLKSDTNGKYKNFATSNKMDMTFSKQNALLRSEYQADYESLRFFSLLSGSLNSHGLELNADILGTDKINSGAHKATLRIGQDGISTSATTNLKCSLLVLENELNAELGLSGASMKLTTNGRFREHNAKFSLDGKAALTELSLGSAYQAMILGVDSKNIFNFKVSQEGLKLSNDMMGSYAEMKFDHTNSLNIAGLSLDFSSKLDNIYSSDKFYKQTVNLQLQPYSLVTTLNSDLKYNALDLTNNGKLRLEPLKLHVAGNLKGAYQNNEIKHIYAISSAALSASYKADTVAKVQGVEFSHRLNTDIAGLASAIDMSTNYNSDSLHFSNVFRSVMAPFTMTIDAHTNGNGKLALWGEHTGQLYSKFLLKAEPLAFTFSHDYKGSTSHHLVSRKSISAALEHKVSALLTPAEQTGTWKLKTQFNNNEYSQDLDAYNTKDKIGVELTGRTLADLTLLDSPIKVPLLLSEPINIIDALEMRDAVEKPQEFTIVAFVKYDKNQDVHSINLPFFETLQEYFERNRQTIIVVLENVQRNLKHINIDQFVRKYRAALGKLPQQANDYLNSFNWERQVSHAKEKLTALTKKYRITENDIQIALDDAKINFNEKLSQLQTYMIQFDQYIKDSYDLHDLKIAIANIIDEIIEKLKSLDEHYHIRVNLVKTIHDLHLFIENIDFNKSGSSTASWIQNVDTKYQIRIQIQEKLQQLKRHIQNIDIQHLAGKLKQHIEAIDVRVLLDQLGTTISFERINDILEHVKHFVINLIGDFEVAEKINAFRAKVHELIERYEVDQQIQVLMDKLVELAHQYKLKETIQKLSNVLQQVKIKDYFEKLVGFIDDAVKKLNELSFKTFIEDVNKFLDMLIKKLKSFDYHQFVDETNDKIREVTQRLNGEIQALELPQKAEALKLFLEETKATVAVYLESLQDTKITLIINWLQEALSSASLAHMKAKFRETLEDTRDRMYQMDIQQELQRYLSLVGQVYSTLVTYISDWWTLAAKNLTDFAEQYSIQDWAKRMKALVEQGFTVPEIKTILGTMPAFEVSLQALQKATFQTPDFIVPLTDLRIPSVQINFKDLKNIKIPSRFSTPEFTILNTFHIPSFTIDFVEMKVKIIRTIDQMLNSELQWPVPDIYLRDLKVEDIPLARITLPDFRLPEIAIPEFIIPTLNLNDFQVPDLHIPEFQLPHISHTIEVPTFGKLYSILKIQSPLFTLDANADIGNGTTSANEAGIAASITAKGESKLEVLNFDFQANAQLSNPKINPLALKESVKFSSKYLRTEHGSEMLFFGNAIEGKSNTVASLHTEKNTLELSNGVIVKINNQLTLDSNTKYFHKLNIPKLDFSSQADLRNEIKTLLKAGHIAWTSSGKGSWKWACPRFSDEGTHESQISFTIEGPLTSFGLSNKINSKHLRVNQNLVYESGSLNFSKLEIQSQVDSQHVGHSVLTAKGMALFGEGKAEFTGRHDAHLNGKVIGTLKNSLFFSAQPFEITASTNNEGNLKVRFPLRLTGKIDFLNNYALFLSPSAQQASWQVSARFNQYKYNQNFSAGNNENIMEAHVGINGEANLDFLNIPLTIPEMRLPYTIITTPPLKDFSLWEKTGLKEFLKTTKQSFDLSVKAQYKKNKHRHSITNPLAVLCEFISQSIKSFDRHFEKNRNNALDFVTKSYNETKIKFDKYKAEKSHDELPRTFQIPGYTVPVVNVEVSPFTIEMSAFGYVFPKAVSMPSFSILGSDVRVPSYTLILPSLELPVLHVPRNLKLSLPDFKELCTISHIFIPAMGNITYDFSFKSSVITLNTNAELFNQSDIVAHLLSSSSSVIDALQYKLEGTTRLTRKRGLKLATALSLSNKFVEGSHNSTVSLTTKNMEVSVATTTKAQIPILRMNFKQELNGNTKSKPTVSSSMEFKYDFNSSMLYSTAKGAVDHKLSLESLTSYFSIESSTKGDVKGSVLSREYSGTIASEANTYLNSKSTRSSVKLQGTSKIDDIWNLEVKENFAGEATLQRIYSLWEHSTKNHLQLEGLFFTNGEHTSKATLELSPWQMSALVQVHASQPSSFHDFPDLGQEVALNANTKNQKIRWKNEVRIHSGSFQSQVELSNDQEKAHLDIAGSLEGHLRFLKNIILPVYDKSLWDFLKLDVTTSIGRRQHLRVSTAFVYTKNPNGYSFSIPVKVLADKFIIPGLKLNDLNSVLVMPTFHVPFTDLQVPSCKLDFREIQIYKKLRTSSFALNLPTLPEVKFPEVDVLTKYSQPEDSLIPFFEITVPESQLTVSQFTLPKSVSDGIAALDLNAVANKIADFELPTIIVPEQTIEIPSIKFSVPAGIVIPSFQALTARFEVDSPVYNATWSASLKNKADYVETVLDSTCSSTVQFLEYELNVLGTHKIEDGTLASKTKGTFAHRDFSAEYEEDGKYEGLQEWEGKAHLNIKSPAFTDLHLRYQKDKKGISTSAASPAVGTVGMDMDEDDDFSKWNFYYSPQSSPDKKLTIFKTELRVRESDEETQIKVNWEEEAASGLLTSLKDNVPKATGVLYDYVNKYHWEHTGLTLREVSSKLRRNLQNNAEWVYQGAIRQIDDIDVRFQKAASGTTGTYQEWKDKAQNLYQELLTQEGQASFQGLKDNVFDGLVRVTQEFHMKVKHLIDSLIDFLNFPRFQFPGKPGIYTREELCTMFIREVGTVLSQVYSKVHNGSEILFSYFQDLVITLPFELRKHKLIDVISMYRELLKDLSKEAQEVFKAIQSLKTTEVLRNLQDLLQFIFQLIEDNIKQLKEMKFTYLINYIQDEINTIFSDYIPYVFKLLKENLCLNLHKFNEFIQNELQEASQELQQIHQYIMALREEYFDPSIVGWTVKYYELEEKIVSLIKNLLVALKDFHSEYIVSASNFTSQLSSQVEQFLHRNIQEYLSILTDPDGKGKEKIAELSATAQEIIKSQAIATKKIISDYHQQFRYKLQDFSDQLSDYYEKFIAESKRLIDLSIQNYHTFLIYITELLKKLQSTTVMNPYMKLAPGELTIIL

B1: human low density lipoprotein receptor (LDLr) on MOLT-4 cells (receptor)
chain: not shown
notes: whole, on cells; also called human LDLr; hLDLr
Take B1: in assay [1], the binding result is “binds”.

B2: murine CD81 on parental (control) mouse 3T3 cells (receptor, UniProt P35762 1-236, looked up)
chain: MGVEGCTKCIKYLLFVFNFVFWLAGGVILGVALWLRHDPQTTSLLYLELGNKPAPNTFYVGIYILIAVGAVMMFVGFLGCYGAIQESQCLLGTFFTCLVILFACEVAAGIWGFVNKDQIAKDVKQFYDQALQQAVMDDDANNAKAVVKTFHETLNCCGSNALTTLTTTILRNSLCPSGGNILTPLLQQDCHQKIDELFSGKLYLIGIAAIVVAVIMIFEMILSMVLCCGIRNSSVY
notes: whole, on cells; also called control 3T3 cells
B2: in assay [2], the binding result was “no binding”.

Regarding B3, in assay [3], the binding result is listed as “no binding”.

For the origin of these results see patent US20040101829A1 (UNIVERSITY OF IOWA RESEARCH FOUNDATION, published 2004).
